Series [1] deals with T1, MsaB-His (Staphylococcus aureus USA300 LAC, UniProt Q2FH36 1-66).
T1 sequence: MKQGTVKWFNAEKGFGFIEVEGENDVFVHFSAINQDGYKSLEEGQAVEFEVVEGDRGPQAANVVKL
Description: EMSA; 5 mM MgCl2, poly(dI-dC); shift reversed by 100-fold unlabeled probe. As to conditions: protein: recombinant; tags: 6xHis; label: biotin (5'); blunt. In general terms: In EMSA bound probe runs differently from free probe, usually more slowly.

Series [2] addresses T1, MsaB-His. The experiment in a line: EMSA; 5 mM MgCl2, poly(dI-dC); shift reduced by 100-fold unlabeled probe. The conditions noted are these: protein: recombinant; tags: 6xHis; label: biotin (5').
Series [3] concerns the target T1, MsaB-His. The experiment in a line: EMSA; 5 mM MgCl2, poly(dI-dC). The conditions noted are these: protein: recombinant, tags: 6xHis, blunt.

B1: ccpE promoter probe (ccpE_EMSA) (dsDNA)
DNA 1: GTTAGTAATGAACTCATGAATGCTTGTGCCATGAAAGTTCAATAATTGAATAATTTATGGGG
DNA 2: CCCCATAAATTATTCAATTATTGAACTTTCATGGCACAAGCATTCATGAGTTCATTACTAAC
As for B1, the binding result in series [1] is recorded as “binds”.

B2: ndh2 ssDNA probe (ndh2_EMSA) (ssDNA)
DNA: GTCTTTTTTGTGAACATCACAGGTTTTTACATAATTTAAAAGACTTAAATAACAAAATGATGATAAACTAGTATA
For the molecule B2, in series [2], the binding result was “binds”.

B3: ndh2 dsDNA, same region (dsDNA)
DNA 1: B2 DNA
DNA 2: TATACTAGTTTATCATCATTTTGTTATTTAAGTCTTTTAAATTATGTAAAAACCTGTGATGTTCACAAAAAAGAC
Regarding B3, the binding result in series [3] is reported as “no binding”.

B4: gudB promoter probe (gudB_EMSA) (dsDNA)
DNA 1: GGAAATTCAATATGTTTGAAAGCGAATCATTAGGTAAAGAAGAGGCGAAAAGGATC
DNA 2: GATCCTTTTCGCCTCTTCTTTACCTAATGATTCGCTTTCAAACATATTGAATTTCC
For B4, the binding result in series [3] (label: biotin (5')) was “no binding”.
